Data from patent US20030027246A1, “Immunogenic peptides derived from prostate-specific membrane antigen (PSMA) and uses thereof” (priority 2000, published 2003).

Molecular target: membrane-bound HLA-A0201 molecule on T2 cells (human)
Experiment: T2 cell HLA-A0201 stabilisation at 125.0 µM peptide, BB7.2 staining, flow cytometry
Details: remark: other sources report otherwise

Fluorescence Index (FI)	Binder
0.7 FI	ELAHYDVLL [CLP-330]
1.3 FI	VLAGGFFLL [CLP-328]
